T1: cynomolgus monkey FcγRIIa3 extracellular domain with C-terminal His-tag (cynomolgus monkey)
T1 construct: also called cyno FcgRIIa3; cynoFcγRIIa3; not shown: His-tag added to the C-terminus
T1 chain: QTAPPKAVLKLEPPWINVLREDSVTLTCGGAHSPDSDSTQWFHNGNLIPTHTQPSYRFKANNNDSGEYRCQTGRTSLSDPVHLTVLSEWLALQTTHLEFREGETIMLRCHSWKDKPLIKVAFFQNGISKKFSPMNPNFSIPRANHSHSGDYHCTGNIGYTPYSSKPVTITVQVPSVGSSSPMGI

T2: cynomolgus monkey FcγRIIa3 extracellular domain, His-tagged (cynomolgus monkey)
T2 construct: also called cyno FcgRIIa3
T2 chain: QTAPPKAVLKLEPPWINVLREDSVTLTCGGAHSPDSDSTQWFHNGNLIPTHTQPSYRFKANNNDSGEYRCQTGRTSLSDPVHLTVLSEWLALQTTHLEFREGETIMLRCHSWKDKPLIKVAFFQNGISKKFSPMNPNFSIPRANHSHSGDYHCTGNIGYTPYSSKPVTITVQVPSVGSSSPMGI

T3: cynomolgus monkey FcγRIIa2 extracellular domain, His-tagged (cynomolgus monkey)
T3 construct: also called cyno FcgRIIa2
T3 chain: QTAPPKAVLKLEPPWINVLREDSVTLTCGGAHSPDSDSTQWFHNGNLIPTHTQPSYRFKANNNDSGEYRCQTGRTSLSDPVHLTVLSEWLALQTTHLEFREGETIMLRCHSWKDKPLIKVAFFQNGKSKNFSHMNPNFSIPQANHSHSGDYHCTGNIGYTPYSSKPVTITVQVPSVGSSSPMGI

T4: cynomolgus monkey FcγRIIb extracellular domain, His-tagged (cynomolgus monkey)
T4 construct: also called cyno FcgRIIb
T4 chain: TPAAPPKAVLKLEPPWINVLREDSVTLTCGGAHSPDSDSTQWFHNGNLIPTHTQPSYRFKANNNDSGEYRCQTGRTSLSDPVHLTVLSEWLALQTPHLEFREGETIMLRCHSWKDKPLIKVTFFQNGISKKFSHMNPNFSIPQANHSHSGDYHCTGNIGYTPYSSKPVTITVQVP

T5: cynomolgus monkey FcγRIIa1 extracellular domain, His-tagged (cynomolgus monkey)
T5 construct: also called cyno FcgRIIa1
T5 chain: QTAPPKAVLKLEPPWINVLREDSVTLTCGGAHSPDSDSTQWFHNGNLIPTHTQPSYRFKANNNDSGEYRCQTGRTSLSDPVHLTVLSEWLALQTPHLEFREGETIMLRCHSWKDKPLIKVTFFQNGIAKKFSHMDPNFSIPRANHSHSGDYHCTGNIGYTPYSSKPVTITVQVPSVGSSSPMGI

T6: cynomolgus monkey FcγRIIIaS extracellular domain, His-tagged (cynomolgus monkey, UniProt Q8SPW2 21-206 at identity 1.00))
T6 construct: also called cyno FcgRIIIaS
T6 chain: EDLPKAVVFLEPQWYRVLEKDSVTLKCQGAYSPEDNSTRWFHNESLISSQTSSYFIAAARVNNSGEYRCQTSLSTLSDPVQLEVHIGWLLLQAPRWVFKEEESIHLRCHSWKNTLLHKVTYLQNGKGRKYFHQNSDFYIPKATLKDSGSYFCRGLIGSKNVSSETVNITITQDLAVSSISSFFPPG


How the values were obtained:
[1] = target: T1, cynomolgus monkey FcγRIIa3 …; assay: SPR (BIACORE), antibody captured, FcgR analyte
Method: The kinetic analysis of interactions between these antibodies and FcγR was carried out using BIACORE® T200 or BIACORE® 4000 (GE Healthcare). HBS-EP+ (GE Healthcare) was used as the running buffer, and the measurement temperature was set to 25° C. […] After the measurement, the antibody captured on the chip was washed off by allowing reaction with 10 mM glycine-HCl, pH1.5 and 25 mM NaOH so that the chip was regenerated and used repeatedly. The sensorgrams obtained as measurement results were analyzed by the 1:1 Langmuir binding model using the BIACORE® Evaluation Software to calculate the binding rate constant ka (L/mol/s) and dissociation rate constant kd (1/s), and the dissociation constant KD (mol/L) was calculated from these values. […] Regarding such interactions, KD values were calculated using the following 1:1 binding model described in BIACORE® T100 Software Handbook BR1006-48 Edition AE.

[2] = target: T2, cynomolgus monkey FcγRIIa3 …; assay: SPR (Biacore), 25C, FcgR bound per antibody captured
Method: (§1) In the next step, cross-reactivity of these substitutions to cynoFcγRs was evaluated.
(§2) The value of the amount of FcγR binding was obtained by dividing the amount of FcγR bound by the amount of each antibody captured.

[3] = target: T3, cynomolgus monkey FcγRIIa2 …; assay: as above
Method: as §1, §2

[4] = target: T4, cynomolgus monkey FcγRIIb extracellular …; assay: as above
Method: as §1, §2

[5] = target: T5, cynomolgus monkey FcγRIIa1 …; assay: as above
Method: as §1, §2

[6] = target: T6, cynomolgus monkey FcγRIIIaS …; assay: as above
Method: as §1, §2

Kd [1] [µM]	Binding to cynoFcgRs (SG1 = 100) [2]	Binding to cynoFcgRs (SG1 = 100) [3]	Binding to cynoFcgRs (SG1 = 100) [4]	Binding to cynoFcgRs (SG1 = 100) [5]	Binding to cynoFcgRs (SG1 = 100) [6]	Binder
	17	13	14	13		M103205H795-SG175 / M103202L889-SK1 (antibody, human IgG1, kappa, name in EU numbering, also called N325F) heavy: not shown light: DIVMTQSPATLSLSPGERATLSCTSSQSVYHANWLSWFQQKPGQPPKLLIYWASTLAYGVPSRFSGSGSGTDFTLTISSLQPEDAATYYCAGGYGGGRYAFGQGTKVEIKRTVAAPSVFIFPPSDEQLKSGTASVVCLLNNFYPREAKVQWKVDNALQSGNSQESVTEQDSKDSTYSLSSTLTLSKADYEKHKVYACEVTHQGLSSPVTKSFNRGEC
	21	15	18	16	12	M103205H795-SG170 / M103202L889-SK1 (antibody, human IgG1, kappa, name in EU numbering, also called P238Q) heavy: not shown light: DIVMTQSPATLSLSPGERATLSCTSSQSVYHANWLSWFQQKPGQPPKLLIYWASTLAYGVPSRFSGSGSGTDFTLTISSLQPEDAATYYCAGGYGGGRYAFGQGTKVEIKRTVAAPSVFIFPPSDEQLKSGTASVVCLLNNFYPREAKVQWKVDNALQSGNSQESVTEQDSKDSTYSLSSTLTLSKADYEKHKVYACEVTHQGLSSPVTKSFNRGEC
	18	20	20	17		M103205H795-SG171 / M103202L889-SK1 (antibody, human IgG1, kappa, name in EU numbering, also called S239P) heavy: not shown light: DIVMTQSPATLSLSPGERATLSCTSSQSVYHANWLSWFQQKPGQPPKLLIYWASTLAYGVPSRFSGSGSGTDFTLTISSLQPEDAATYYCAGGYGGGRYAFGQGTKVEIKRTVAAPSVFIFPPSDEQLKSGTASVVCLLNNFYPREAKVQWKVDNALQSGNSQESVTEQDSKDSTYSLSSTLTLSKADYEKHKVYACEVTHQGLSSPVTKSFNRGEC
	27	17	16	14	31	M103205H795-SG172 / M103202L889-SK1 (antibody, human IgG1, kappa, name in EU numbering, also called V266F) heavy: not shown light: DIVMTQSPATLSLSPGERATLSCTSSQSVYHANWLSWFQQKPGQPPKLLIYWASTLAYGVPSRFSGSGSGTDFTLTISSLQPEDAATYYCAGGYGGGRYAFGQGTKVEIKRTVAAPSVFIFPPSDEQLKSGTASVVCLLNNFYPREAKVQWKVDNALQSGNSQESVTEQDSKDSTYSLSSTLTLSKADYEKHKVYACEVTHQGLSSPVTKSFNRGEC

More lines, now with the values behind:

Binder	Kd [1] [µM]	Binding to cynoFcgRs (SG1 = 100) [2]	Binding to cynoFcgRs (SG1 = 100) [3]	Binding to cynoFcgRs (SG1 = 100) [4]	Binding to cynoFcgRs (SG1 = 100) [5]	Binding to cynoFcgRs (SG1 = 100) [6]
M103205H795-MY201/M103202L889-SK1 (antibody, human IgG1, kappa, Fc variant of MS1032LO06-SG1; also called MS1032LO06-MY201) heavy: QVTLKESGPVLVKPTETLTLTCTVSGIDLSHDDISWVRQAPGKGLEWVGIISYAGSTYYASWAKGRLTISKDTSKNQVVLTMTNMDPVDTATYYCARGVPAYSHGGDLWGQGTLVTVSSASTKGPSVFPLAPSSKSTSGGTAALGCLVKDYFPEPVTVSWNSGALTSGVHTFPAVLQSSGLYSLSSVVTVPSSSLGTQTYICNVNHKPSNTKVDKKVEPKSCDKTHTCPPCPAPELLNGPSVFLFPPKPKDTLMISRTPEVTCVVVDVSDEDPEVKFNWYVDGVEVHNAKTKPREEQYNSTYRVVSVLTVLHQDWLNGKEYKCKVSNKALPKPIEKTISKAKGQPREPQVYTLPPSREEMTKNQVSLTCLVKGFYPSDIAVEWESNGQPENNYKTTPPVLDSDGSFFLYSKLTVDKSRWQQGNVFSCSVMHEALHNHYTQKSLSLSP light: DIVMTQSPATLSLSPGERATLSCTSSQSVYHANWLSWFQQKPGQPPKLLIYWASTLAYGVPSRFSGSGSGTDFTLTISSLQPEDAATYYCAGGYGGGRYAFGQGTKVEIKRTVAAPSVFIFPPSDEQLKSGTASVVCLLNNFYPREAKVQWKVDNALQSGNSQESVTEQDSKDSTYSLSSTLTLSKADYEKHKVYACEVTHQGLSSPVTKSFNRGEC	5.9					
M103205H795-MY001 / M103202L889-SK1 (antibody, human IgG1, kappa, name in EU numbering, also called G236N) heavy: not shown light: DIVMTQSPATLSLSPGERATLSCTSSQSVYHANWLSWFQQKPGQPPKLLIYWASTLAYGVPSRFSGSGSGTDFTLTISSLQPEDAATYYCAGGYGGGRYAFGQGTKVEIKRTVAAPSVFIFPPSDEQLKSGTASVVCLLNNFYPREAKVQWKVDNALQSGNSQESVTEQDSKDSTYSLSSTLTLSKADYEKHKVYACEVTHQGLSSPVTKSFNRGEC		62	86	85	83	15
M103205H795-SG165 / M103202L889-SK1 (antibody, human IgG1, kappa, name in EU numbering, also called G237Y) heavy: not shown light: DIVMTQSPATLSLSPGERATLSCTSSQSVYHANWLSWFQQKPGQPPKLLIYWASTLAYGVPSRFSGSGSGTDFTLTISSLQPEDAATYYCAGGYGGGRYAFGQGTKVEIKRTVAAPSVFIFPPSDEQLKSGTASVVCLLNNFYPREAKVQWKVDNALQSGNSQESVTEQDSKDSTYSLSSTLTLSKADYEKHKVYACEVTHQGLSSPVTKSFNRGEC		30	17	30	18	7
M103205H795-SG166 / M103202L889-SK1 (antibody, human IgG1, kappa, name in EU numbering, also called G237D) heavy: not shown light: DIVMTQSPATLSLSPGERATLSCTSSQSVYHANWLSWFQQKPGQPPKLLIYWASTLAYGVPSRFSGSGSGTDFTLTISSLQPEDAATYYCAGGYGGGRYAFGQGTKVEIKRTVAAPSVFIFPPSDEQLKSGTASVVCLLNNFYPREAKVQWKVDNALQSGNSQESVTEQDSKDSTYSLSSTLTLSKADYEKHKVYACEVTHQGLSSPVTKSFNRGEC		17	10		10	5
M103205H795-SG167 / M103202L889-SK1 (antibody, human IgG1, kappa, name in EU numbering, also called P238Y) heavy: not shown light: DIVMTQSPATLSLSPGERATLSCTSSQSVYHANWLSWFQQKPGQPPKLLIYWASTLAYGVPSRFSGSGSGTDFTLTISSLQPEDAATYYCAGGYGGGRYAFGQGTKVEIKRTVAAPSVFIFPPSDEQLKSGTASVVCLLNNFYPREAKVQWKVDNALQSGNSQESVTEQDSKDSTYSLSSTLTLSKADYEKHKVYACEVTHQGLSSPVTKSFNRGEC		38	14	22	18	14
M103205H795-SG169 / M103202L889-SK1 (antibody, human IgG1, kappa, name in EU numbering, also called P238M) heavy: not shown light: DIVMTQSPATLSLSPGERATLSCTSSQSVYHANWLSWFQQKPGQPPKLLIYWASTLAYGVPSRFSGSGSGTDFTLTISSLQPEDAATYYCAGGYGGGRYAFGQGTKVEIKRTVAAPSVFIFPPSDEQLKSGTASVVCLLNNFYPREAKVQWKVDNALQSGNSQESVTEQDSKDSTYSLSSTLTLSKADYEKHKVYACEVTHQGLSSPVTKSFNRGEC		32	16	22	17	22
M103205H795-SG168 / M103202L889-SK1 (antibody, human IgG1, kappa, name in EU numbering, also called P238E) heavy: not shown light: DIVMTQSPATLSLSPGERATLSCTSSQSVYHANWLSWFQQKPGQPPKLLIYWASTLAYGVPSRFSGSGSGTDFTLTISSLQPEDAATYYCAGGYGGGRYAFGQGTKVEIKRTVAAPSVFIFPPSDEQLKSGTASVVCLLNNFYPREAKVQWKVDNALQSGNSQESVTEQDSKDSTYSLSSTLTLSKADYEKHKVYACEVTHQGLSSPVTKSFNRGEC		30	16	28	21	13
